B1: C-terminally truncated bovine GRK1 (residues 1-535) with C-terminal His6 (enzyme, UniProt P28327 1-535, looked up)
chain: MDFGSLETVVANSAFIAARGSFDASSGPASRDRKYLARLKLPPLSKCEALRESLDLGFEGMCLEQPIGKRLFQQFLRTHEQHGPALQLWKDIEDYDTADDALRPQKAQALRAAYLEPQAQLFCSFLDAETVARARAGAGDGLFQPLLRAVLAHLGQAPFQEFLDSLYFLRFLQWKWLEAQPMGEDWFLDFRVLGRGGFGEVFACQMKATGKLYACKKLNKKRLKKRKGYQGAMVEKKILAKVHSRFIVSLAYAFETKTDLCLVMTIMNGGDIRYHIYNVDEDNPGFQEPRAIFYTAQIVSGLEHLHQRNIIYRDLKPENVLLDDDGNVRISDLGLAVELKAGQTKTKGYAGTPGFMAPELLLGEEYDFSVDYFALGVTLYEMIAARGPFRARGEKVENKELKQRVLEQAVTYPDKFSPASKDFCEALLQKDPEKRLGFRDGSCDGLRTHPLFRDISWRQLEAGMLTPPFVPDSRTVYAKNIQDVGAFSTVKGVAFEKADTEFFQEFASGTCPIPWQEEMIETGVFGDLNVWRPDG
B2: light activated rhodopsin (Rho*) (receptor, bovine, UniProt P02699 1-348, looked up)
chain: MNGTEGPNFYVPFSNKTGVVRSPFEAPQYYLAEPWQFSMLAAYMFLLIMLGFPINFLTLYVTVQHKKLRTPLNYILLNLAVADLFMVFGGFTTTLYTSLHGYFVFGPTGCNLEGFFATLGGEIALWSLVVLAIERYVVVCKPMSNFRFGENHAIMGVAFTWVMALACAAPPLVGWSRYIPEGMQCSCGIDYYTPHEETNNESFVIYMFVVHFIIPLIVIFFCYGQLVFTVKEAAAQQQESATTQKAEKEVTRMVIIMVIAFLICWLPYAGVAFYIFTHQGSDFGPIFMTIPAFFAKTSAVYNPVIYIMMNKQFRNCMVTTLCCGKNPLGDDEASTTVSKTETSQVAPA
modifications: all-trans retinal (Meta II state)
B3: hyper-phosphorylated rhodopsin (light activated) (receptor, bovine, UniProt P02699 1-348, looked up)
chain: B2 chain
modifications: 6–8 phosphates incorporated per rhodopsin (7 possible sites in the cytoplasmic tail)
B4: Fab6 (Fab, V domains shown)
VH: EVQLVESGGGLVQPGGSLRLSCAASGFNFSSYSIHWVRQAPGKGLEWVAYISSYYGSTYYADSVKGRFTISADTSKNTAYLQMNSLRAEDTAVYYCARHEYGWWNDRWGLDYWGQGTLVTVSS
VL: DIQMTQSPSSLSASVGDRVTITCRASQSVSSAVAWYQQKPGKAPKLLIYSASSLYSGVPSRFSGSRSGTDFTLTISSLQPEDFATYYCQQSSWYGPFTFGQGTKVEIK
B5: Fab1 (Fab, V domains shown)
VH: EVQLVESGGGLVQPGGSLRLSCAASGFNLYSSSIHWVRQAPGKGLEWVASIYSYYGSTSYADSVKGRFTISADTSKNTAYLQMNSLRAEDTAVYYCARYEGWWWANTYALDYWGQGTLVTVSS
VL: DIQMTQSPSSLSASVGDRVTITCRASQSVSSAVAWYQQKPGKAPKLLIYSASSLYSGVPSRFSGSRSGTDFTLTISSLQPEDFATYYCQQYYEWLSLFTFGQGTKVEIK

Assay [1] deals with B2. The assay is described as follows: cross-linking.
The target in assay [2] is B1. The assay is described as follows: cross-linking.
Assay [3] concerns the target biotinylated Avi-tagged GRK1 (residues 1-535, His6-Avi), Sgv-bound (Bos taurus (Bovine)., UniProt P28327, biotin on the Avi-tag). Briefly: ELISA. (ELISA stands for enzyme-linked immunosorbent assay.)

Usually stoichiometry N stands for a count of units in the complex or per binding partner. Consider B1, for which the “stoichiometry N” value in assay [1] was determined as 1.
On to B2, for which the binding result in assay [2] is recorded as “binds”.
For B3, the binding result in assay [2] was “binds”.
Usually Kd stands for the concentration at which binding is half-saturated. A high value points to a looser complex. B4 gave a Kd in assay [3] of approximately 2.5 nM.
On the same count and under the same terms, next, B5: approximately 2.5 nM.
